{"source": "paper PMC2964679", "about": "“Characterization of exceptionally thermostable single-stranded DNA-binding proteins from Thermotoga maritima and Thermotoga neapolitana” (BMC Microbiology, 2010)", "binders": {"B1": {"name": "(dT)60 (ssDNA)", "DNA": "TTTTTTTTTTTTTTTTTTTTTTTTTTTTTTTTTTTTTTTTTTTTTTTTTTTTTTTTTTTT"}, "B2": {"name": "(dT)76 (titration) (ssDNA)", "DNA": "TTTTTTTTTTTTTTTTTTTTTTTTTTTTTTTTTTTTTTTTTTTTTTTTTTTTTTTTTTTTTTTTTTTTTTTTTTTT"}, "B3": {"name": "(dT)76 (ssDNA)", "DNA": "B2 DNA"}, "B4": {"name": "single-stranded DNA-binding protein from Thermotoga neapolitana (TneSSB) (natural protein, UniProt D1M925 1-142, looked up)", "chain": "MSFFNRIILIGRLVRDPEERYTLSGTPVTTFTIAVDRVPRKNAPDDAQTTDFFRVVTFGRLAEFARTYLTKGRLILVEGEMRMRRWETQTGEKRVSPEVVANVVRFMDRKPVEMPSEDIEEKLEIPEEDFTDDTFSEDEPPF", "notes": "ssb gene amplified with primers from the ATG start codon to the TGA stop codon, cloned between NdeI and HindIII of pET30Ek/LIC (pETSSBTne); No tag is mentioned; cloning between NdeI and HindIII with the gene's own stop codon probably leaves out the vector's tags (surmised); also called T. neapolitana SSB; source: E. coli BL21(DE3)pLysS, purified (heat treatment at 80°C, QAE-cellulose, …)"}, "B5": {"name": "(dT)120 (ssDNA)", "DNA": "TTTTTTTTTTTTTTTTTTTTTTTTTTTTTTTTTTTTTTTTTTTTTTTTTTTTTTTTTTTTTTTTTTTTTTTTTTTTTTTTTTTTTTTTTTTTTTTTTTTTTTTTTTTTTTTTTTTTTTTT"}, "B6": {"name": "single-stranded DNA-binding protein from Thermotoga maritima (TmaSSB) (natural protein, UniProt Q9WZ73 1-141, looked up)", "chain": "MSFFNKIILIGRLVRDPEERYTLSGTPVTTFTIAVDRVPRKNAPDDAQTTDFFRIVTFGRLAEFARTYLTKGRLVLVEGEMRMRRWETPTGEKRVSPEVVANVVRFMDRKPAETVSETEEELEIPEEDFSSDTFSEDEPPF", "notes": "ssb gene amplified with primers from the ATG start codon to the TGA stop codon, cloned between NdeI and HindIII of pET30Ek/LIC (pETSSBTma); No tag is mentioned; cloning between NdeI and HindIII with the gene's own stop codon probably leaves out the vector's tags (surmised); also called T. maritima SSB; source: E. coli BL21(DE3)pLysS, purified (heat treatment at 80°C, QAE-cellulose, …)"}}, "key": {"TmaSSB [1]": {"target": "T1, TmaSSB (Thermotoga maritima MSB8 (DSM 3106), UniProt Q9WZ73 1-141)", "T1 sequence": "B6 chain", "test": "EMSA (agarose); 2 or 100 mM NaCl; one tetramer; 20 mM Tris-HCl pH 7.5, 1 mM EDTA, 2 or 100 mM NaCl, 25°C; EMSA 10 pmol oligo (1.5 pmol M13) with 10-200 pmol SSB in 10 µl, 2% agarose in TAE; titration 1 nM SSB with 0-0.8 nM (dT)76", "conditions": "protein: recombinant; tags: none stated (NdeI/HindIII in pET30Ek/LIC, start and stop codon in primers); chain copies: 4; label: 5'-fluorescein (EMSA); single strand"}, "TneSSB [2]": {"target": "T2, TneSSB (Thermotoga neapolitana DSM 4359, UniProt D1M925 1-142)", "T2 sequence": "B4 chain", "test": "EMSA (agarose); 2 or 100 mM NaCl; one tetramer; 20 mM Tris-HCl pH 7.5, 1 mM EDTA, 2 or 100 mM NaCl, 25°C; EMSA 10 pmol oligo (1.5 pmol M13) with 10-200 pmol SSB in 10 µl, 2% agarose in TAE; titration 1 nM SSB with 0-0.8 nM (dT)76", "conditions": "protein: recombinant; tags: none stated (NdeI/HindIII in pET30Ek/LIC, start and stop codon in primers); chain copies: 4; label: 5'-fluorescein (EMSA); single strand"}, "TmaSSB [3]": {"target": "T1, TmaSSB", "test": "fluorescence titration (Trp quenching); 2 mM NaCl; cooperative affinity omega*K; site size 68 +/- 2 nt; quench 95%; 20 mM Tris-HCl pH 7.5, 1 mM EDTA, 2 or 100 mM NaCl, 25°C; EMSA 10 pmol oligo (1.5 pmol M13) with 10-200 pmol SSB in 10 µl, 2% agarose in TAE; titration 1 nM SSB with 0-0.8 nM (dT)76", "conditions": "protein: recombinant; tags: none stated (NdeI/HindIII in pET30Ek/LIC, start and stop codon in primers); chain copies: 4; single strand"}, "TneSSB [4]": {"target": "T2, TneSSB", "test": "fluorescence titration (Trp quenching); 2 mM NaCl; cooperative affinity omega*K; site size 68 +/- 2 nt; quench 95%; 20 mM Tris-HCl pH 7.5, 1 mM EDTA, 2 or 100 mM NaCl, 25°C; EMSA 10 pmol oligo (1.5 pmol M13) with 10-200 pmol SSB in 10 µl, 2% agarose in TAE; titration 1 nM SSB with 0-0.8 nM (dT)76", "conditions": "protein: recombinant; tags: none stated (NdeI/HindIII in pET30Ek/LIC, start and stop codon in primers); chain copies: 4; single strand"}, "[5]": {"target": "the molecule itself", "test": "SEC; FPLC analytical gel filtration on a Superdex HR 75 column, calibrated with bovine albumin, ovalbumin, carbon anhydrase and cytochrome C; oligomeric state in solution"}, "TmaSSB [6]": {"target": "T1, TmaSSB", "test": "EMSA (agarose); 2 or 100 mM NaCl; two tetramers at high protein; 20 mM Tris-HCl pH 7.5, 1 mM EDTA, 2 or 100 mM NaCl, 25°C; EMSA 10 pmol oligo (1.5 pmol M13) with 10-200 pmol SSB in 10 µl, 2% agarose in TAE; titration 1 nM SSB with 0-0.8 nM (dT)76", "conditions": "protein: recombinant; tags: none stated (NdeI/HindIII in pET30Ek/LIC, start and stop codon in primers); chain copies: 4; label: 5'-fluorescein (EMSA); single strand"}, "TneSSB [7]": {"target": "T2, TneSSB", "test": "EMSA (agarose); 2 or 100 mM NaCl; two tetramers at high protein; 20 mM Tris-HCl pH 7.5, 1 mM EDTA, 2 or 100 mM NaCl, 25°C; EMSA 10 pmol oligo (1.5 pmol M13) with 10-200 pmol SSB in 10 µl, 2% agarose in TAE; titration 1 nM SSB with 0-0.8 nM (dT)76", "conditions": "protein: recombinant; tags: none stated (NdeI/HindIII in pET30Ek/LIC, start and stop codon in primers); chain copies: 4; label: 5'-fluorescein (EMSA); single strand"}}, "data": [{"binder": "B1", "values": [{"measurement": "binding result", "setting": "TmaSSB [1]", "result": "binds"}, {"measurement": "binding result", "setting": "TneSSB [2]", "result": "binds"}]}, {"binder": "B2", "values": [{"measurement": "binding result", "setting": "TmaSSB [3]", "result": "binds"}, {"measurement": "binding result", "setting": "TneSSB [4]", "result": "binds"}]}, {"binder": "B3", "values": [{"measurement": "binding result", "setting": "TmaSSB [1]", "result": "binds"}, {"measurement": "binding result", "setting": "TneSSB [2]", "result": "binds"}]}, {"binder": "TTTTTTTTTTTTTTTTTTTTTTTTTTTTTTTTTTT (ssDNA)", "note": "[(dT)35]", "values": [{"measurement": "binding result", "setting": "TmaSSB [1]", "result": "binds"}, {"measurement": "binding result", "setting": "TneSSB [2]", "result": "binds"}]}, {"binder": "B4", "values": [{"measurement": "stoichiometry N", "setting": "[5]", "result": 4}]}, {"binder": "B5", "values": [{"measurement": "binding result", "setting": "TmaSSB [6]", "result": "binds"}, {"measurement": "binding result", "setting": "TneSSB [7]", "result": "binds"}]}, {"binder": "B6", "values": [{"measurement": "stoichiometry N", "setting": "[5]", "result": 4}]}]}
